{"source": "paper PMC13313556", "about": "“Development and characterization of triazole-based WDR5 inhibitors for the treatment of glioblastoma” (JCI Insight, 2026)", "binders": {"B1": {"name": "10-mer-Thr-FAM peptide probe (ARTEVHLRKS-[Ahx-Ahx][Lys-(5-FAM)]) (peptide)", "peptide": "ARTEVHLRKS", "modifications": "C-terminal Ahx-Ahx followed by Lys-(5-FAM)", "notes": "WIN-site peptide probe; After the ten printed residues come two aminohexanoic acid (Ahx) units and a lysine that carries 5-FAM; also called labeled WIN-site peptide; labeled WIN-peptide; source: synthetic peptide (GenScript)"}}, "target": "His6-SUMO-WDR5 (recombinant human WD-repeat containing protein 5, residues Ser22-Cys334) (human, UniProt P61964 22-334)", "assay": "AlphaScreen or HTRF; competitive TR-FRET: 1 nM LanthaScreen Elite Tb-anti-His antibody, 150 nM 10-mer-Thr-FAM peptide, 2 nM His6-SUMO-WDR5 in 1X PBS pH 7.2, 300 mM NaCl, 0.5 mM TCEP, 0.1% CHAPS; 1 hour at room temperature; small-molecule inhibitors titrated to displace the peptide", "settings": "both partners purified", "data": [{"binder": "B1", "values": [{"measurement": "binding result", "result": "binds"}]}]}
